# According to article PMC13006735:
# Like-named read-outs stand apart in the source and are kept apart here.
# Columns and labels:
# [1] = biological target: Ebola virus (EBOV, Zaire) glycoprotein GP, wild type (Ebola virus (EBOV, Zaire)) (UniProt Q05320)
# [2] = biological target: Sudan virus (SUDV) glycoprotein GP (Sudan virus (SUDV)) (UniProt Q7T9D9)
# [3] = biological target: Sudan virus (SUDV) glycoprotein GP (Sudan virus (SUDV)) (UniProt Q7T9D9); remark: listed apart in the source
Substance,"IC50, neutralisation of EBOV GP pseudovirus (luciferase, Huh7 cells) [1]","IC90, neutralisation of EBOV GP pseudovirus (luciferase, Huh7 cells) [1]","IC50, neutralisation of SUDV GP pseudovirus (luciferase, Huh7 cells) [2]","IC90, neutralisation of SUDV GP pseudovirus (luciferase, Huh7 cells) [2]","IC90, neutralisation of SUDV GP pseudovirus (luciferase, Huh7 cells) [3]"
A50Y/S52Y/L54R-LC (ADI-15946 light chain triple mutant) (antibody),0.15 µg/mL,1.1 µg/mL,–,–,–
ADI-15878 (antibody),–,–,0.04 µg/mL,0.9 µg/mL,0.3 µg/mL
H27Q/S52Y/G66R-LC (ADI-15946 light chain triple mutant) (antibody),0.15 µg/mL,0.86 µg/mL,–,–,–
